Publication PMC1747184 (Nucleic Acids Research, 2006)

Target: MutSα (MSH2–MSH6) (human (endogenous in HCT-116), UniProt P43246;P52701)
Assay: pull-down

Sequence of MutSα (MSH2–MSH6) (P43246 whole entry, chain 1 of 2): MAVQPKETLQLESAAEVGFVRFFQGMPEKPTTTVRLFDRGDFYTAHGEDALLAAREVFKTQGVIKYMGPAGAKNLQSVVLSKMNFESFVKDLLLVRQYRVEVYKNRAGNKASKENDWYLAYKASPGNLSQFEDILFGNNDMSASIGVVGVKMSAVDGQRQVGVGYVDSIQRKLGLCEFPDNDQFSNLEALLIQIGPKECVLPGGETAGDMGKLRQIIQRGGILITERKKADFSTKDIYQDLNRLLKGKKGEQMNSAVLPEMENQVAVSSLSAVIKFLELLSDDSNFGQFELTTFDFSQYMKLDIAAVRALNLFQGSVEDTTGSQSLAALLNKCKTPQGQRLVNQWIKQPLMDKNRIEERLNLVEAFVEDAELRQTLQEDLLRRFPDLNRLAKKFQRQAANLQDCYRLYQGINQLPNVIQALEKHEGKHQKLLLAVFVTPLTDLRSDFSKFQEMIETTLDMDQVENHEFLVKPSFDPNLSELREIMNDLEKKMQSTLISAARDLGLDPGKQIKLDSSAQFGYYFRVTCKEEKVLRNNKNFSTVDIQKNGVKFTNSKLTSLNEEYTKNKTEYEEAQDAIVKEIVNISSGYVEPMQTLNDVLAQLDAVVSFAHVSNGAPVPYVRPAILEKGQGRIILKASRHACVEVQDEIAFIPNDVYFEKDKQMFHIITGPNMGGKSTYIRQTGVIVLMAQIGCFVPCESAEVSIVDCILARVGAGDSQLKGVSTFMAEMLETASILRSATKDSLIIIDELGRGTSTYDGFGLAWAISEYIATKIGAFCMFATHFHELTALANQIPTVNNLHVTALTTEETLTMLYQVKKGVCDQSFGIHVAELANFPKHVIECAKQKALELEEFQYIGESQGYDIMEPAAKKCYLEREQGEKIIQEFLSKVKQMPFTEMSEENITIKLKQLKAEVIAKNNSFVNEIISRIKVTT
Sequence of MutSα (MSH2–MSH6) (P52701 whole entry, chain 2 of 2): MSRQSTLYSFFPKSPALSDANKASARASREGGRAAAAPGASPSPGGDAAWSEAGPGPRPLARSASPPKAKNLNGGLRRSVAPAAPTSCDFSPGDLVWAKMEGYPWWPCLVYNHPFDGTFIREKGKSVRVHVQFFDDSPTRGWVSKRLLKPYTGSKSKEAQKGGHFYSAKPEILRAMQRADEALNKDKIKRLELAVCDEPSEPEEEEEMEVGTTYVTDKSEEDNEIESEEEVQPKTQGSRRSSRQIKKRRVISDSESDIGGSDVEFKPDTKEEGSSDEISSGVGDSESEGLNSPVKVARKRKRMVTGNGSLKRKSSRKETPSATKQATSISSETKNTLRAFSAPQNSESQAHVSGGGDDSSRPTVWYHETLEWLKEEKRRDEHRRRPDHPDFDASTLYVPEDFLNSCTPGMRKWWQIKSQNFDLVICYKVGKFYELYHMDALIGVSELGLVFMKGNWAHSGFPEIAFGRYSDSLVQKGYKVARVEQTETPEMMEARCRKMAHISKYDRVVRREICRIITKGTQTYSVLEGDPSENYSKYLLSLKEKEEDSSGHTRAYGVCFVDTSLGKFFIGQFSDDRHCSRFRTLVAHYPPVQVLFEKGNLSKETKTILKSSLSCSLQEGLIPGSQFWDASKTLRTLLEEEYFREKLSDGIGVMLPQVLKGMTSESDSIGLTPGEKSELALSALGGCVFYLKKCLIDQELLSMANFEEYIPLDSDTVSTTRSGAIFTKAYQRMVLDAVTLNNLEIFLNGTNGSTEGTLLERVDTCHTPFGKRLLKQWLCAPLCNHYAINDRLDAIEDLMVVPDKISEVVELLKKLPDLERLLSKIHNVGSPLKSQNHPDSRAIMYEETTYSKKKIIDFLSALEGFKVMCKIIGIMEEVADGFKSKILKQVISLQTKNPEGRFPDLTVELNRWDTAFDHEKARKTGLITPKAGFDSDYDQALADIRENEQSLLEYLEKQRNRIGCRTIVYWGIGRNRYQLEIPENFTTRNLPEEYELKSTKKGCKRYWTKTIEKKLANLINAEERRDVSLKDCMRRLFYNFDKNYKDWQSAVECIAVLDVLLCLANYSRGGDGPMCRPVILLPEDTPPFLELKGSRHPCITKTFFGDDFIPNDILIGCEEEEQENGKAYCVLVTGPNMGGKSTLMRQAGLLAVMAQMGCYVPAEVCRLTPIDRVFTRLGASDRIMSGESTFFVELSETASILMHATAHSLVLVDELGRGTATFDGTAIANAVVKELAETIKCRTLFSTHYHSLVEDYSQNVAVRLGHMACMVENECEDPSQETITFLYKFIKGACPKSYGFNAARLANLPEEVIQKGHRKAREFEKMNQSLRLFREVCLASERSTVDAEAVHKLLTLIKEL

fold decrease of binding against wild-type MutLα: ~5 fold
B1: MutLα^(MLH1 A128P) (complex)
chain 1: MSFVAGVIRRLDETVVNRIAAGEVIQRPANAIKEMIENCLDAKSTSIQVIVKEGGLKLIQIQDNGTGIRKEDLDIVCERFTTSKLQSFEDLASISTYGFRGEALASISHVAHVTITTKTADGKCAYRPSYSDGKLKAPPKPCAGNQGTQITVEDLFYNIATRRKALKNPSEEYGKILEVVGRYSVHNAGISFSVKKQGETVADVRTLPNASTVDNIRSIFGNAVSRELIEIGCEDKTLAFKMNGYISNANYSVKKCIFLLFINHRLVESTSLRKAIETVYAAYLPKNTHPFLYLSLEISPQNVDVNVHPTKHEVHFLHEESILERVQQHIESKLLGSNSSRMYFTQTLLPGLAGPSGEMVKSTTSLTSSSTSGSSDKVYAHQMVRTDSREQKLDAFLQPLSKPLSSQPQAIVTEDKTDISSGRARQQDEEMLELPAPAEVAAKNQSLEGDTTKGTSEMSEKRGPTSSNPRKRHREDSDVEMVEDDSRKEMTAACTPRRRIINLTSVLSLQEEINEQGHEVLREMLHNHSFVGCVNPQWALAQHQTKLYLLNTTKLSEELFYQILIYDFANFGVLRLSEPAPLFDLAMLALDSPESGWTEEDGPKEGLAEYIVEFLKKKAEMLADYFSLEIDEEGNLIGLPLLIDNYVPPLEGLPIFILRLATEVNWDEEKECFESLSKECAMFYSIRKQYISEESTLSGQQSEVPGSIPNSWKWTVEHIVYKALRSHILPPKHFTEDGNILQLANLPDLYKVFERC
chain 2: MERAESSSTEPAKAIKPIDRKSVHQICSGQVVLSLSTAVKELVENSLDAGATNIDLKLKDYGVDLIEVSDNGCGVEEENFEGLTLKHHTSKIQEFADLTQVETFGFRGEALSSLCALSDVTISTCHASAKVGTRLMFDHNGKIIQKTPYPRPRGTTVSVQQLFSTLPVRHKEFQRNIKKEYAKMVQVLHAYCIISAGIRVSCTNQLGQGKRQPVVCTGGSPSIKENIGSVFGQKQLQSLIPFVQLPPSDSVCEEYGLSCSDALHNLFYISGFISQCTHGVGRSSTDRQFFFINRRPCDPAKVCRLVNEVYHMYNRHQYPFVVLNISVDSECVDINVTPDKRQILLQEEKLLLAVLKTSLIGMFDSDVNKLNVSQQPLLDVEGNLIKMHAADLEKPMVEKQDQSPSLRTGEEKKDVSISRLREAFSLRHTTENKPHSPKTPEPRRSPLGQKRGMLSSSTSGAISDKGVLRPQKEAVSSSHGPSDPTDRAEVEKDSGHGSTSVDSEGFSIPDTGSHCSSEYAASSPGDRGSQEHVDSQEKAPKTDDSFSDVDCHSNQEDTGCKFRVLPQPTNLATPNTKRFKKEEILSSSDICQKLVNTQDMSASQVDVAVKINKKVVPLDFSMSSLAKRIKQLHHEAQQSEGEQNYRKFRAKICPGENQAAEDELRKEISKTMFAEMEIIGQFNLGFIITKLNEDIFIVDQHATDEKYNFEMLQQHTVLQGQRLIAPQTLNLTAVNEAVLIENLEIFRKNGFDFVIDENAPVTERAKLISLPTSKNWTFGPQDVDELIFMLSDSPGVMCRPSRVKQMFASRACRKSVMIGTALNTSEMKKLITHMGEMDHPWNCPHGRPTMRHIANLGVISQN
